Laboratory results taken from patent US20240043568A1 (KEYMED BIOSCIENCES, published 2024).

T1: human CD3εγ-Fc heterodimer (human)
T1 construct: also called human CD3 εγ protein; recombinant CD3 εγ protein
T1 chain 1: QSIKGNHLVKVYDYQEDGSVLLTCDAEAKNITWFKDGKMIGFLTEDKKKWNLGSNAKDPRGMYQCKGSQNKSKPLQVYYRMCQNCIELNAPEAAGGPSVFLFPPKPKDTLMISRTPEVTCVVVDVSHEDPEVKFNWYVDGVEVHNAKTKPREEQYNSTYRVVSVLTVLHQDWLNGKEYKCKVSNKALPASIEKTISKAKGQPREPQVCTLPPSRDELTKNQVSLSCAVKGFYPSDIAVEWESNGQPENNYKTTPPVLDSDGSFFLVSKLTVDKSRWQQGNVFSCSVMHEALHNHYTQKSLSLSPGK
T1 chain 2: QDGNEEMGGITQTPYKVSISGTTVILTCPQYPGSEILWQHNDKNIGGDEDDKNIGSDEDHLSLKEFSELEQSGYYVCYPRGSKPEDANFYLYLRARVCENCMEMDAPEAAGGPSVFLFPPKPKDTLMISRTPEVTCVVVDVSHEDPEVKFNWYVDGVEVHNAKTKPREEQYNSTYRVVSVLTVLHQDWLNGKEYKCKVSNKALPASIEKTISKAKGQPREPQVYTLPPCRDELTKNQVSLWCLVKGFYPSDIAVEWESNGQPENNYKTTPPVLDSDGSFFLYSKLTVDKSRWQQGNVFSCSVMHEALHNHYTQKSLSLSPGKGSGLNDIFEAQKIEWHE

T2: cynomolgus monkey CD3εγ-Fc heterodimer (cynomolgus monkey)
T2 construct: also called monkey CD3 εγ protein
T2 chain 1: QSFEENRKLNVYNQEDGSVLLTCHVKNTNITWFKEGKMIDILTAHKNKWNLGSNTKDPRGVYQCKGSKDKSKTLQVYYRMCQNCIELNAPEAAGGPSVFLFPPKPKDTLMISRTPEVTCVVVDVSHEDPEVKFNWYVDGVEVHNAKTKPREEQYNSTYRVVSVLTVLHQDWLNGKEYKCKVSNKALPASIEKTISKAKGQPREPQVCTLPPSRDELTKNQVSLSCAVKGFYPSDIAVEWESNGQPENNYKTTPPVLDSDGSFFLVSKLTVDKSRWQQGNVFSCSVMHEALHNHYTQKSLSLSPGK
T2 chain 2: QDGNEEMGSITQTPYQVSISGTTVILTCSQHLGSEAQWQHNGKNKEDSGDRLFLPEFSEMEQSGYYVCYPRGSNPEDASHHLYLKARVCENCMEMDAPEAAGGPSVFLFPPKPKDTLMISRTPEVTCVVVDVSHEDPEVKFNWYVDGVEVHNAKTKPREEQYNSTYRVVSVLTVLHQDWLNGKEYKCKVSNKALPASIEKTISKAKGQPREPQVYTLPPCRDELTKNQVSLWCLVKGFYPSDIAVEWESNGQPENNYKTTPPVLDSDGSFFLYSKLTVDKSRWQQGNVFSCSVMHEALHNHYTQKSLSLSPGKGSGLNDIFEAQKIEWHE


What was measured:
human GPC3 on cells = target: T3, human GPC3 on cells (human, UniProt P51654 25-563); experiment: flow cytometry, HepG2 cells
T3 construct: whole, on cells; One molecule is used for both CHO-hGPC3 transfectants and GPC3+ HepG2 cells; The assay field names the cell; also called CHO-hGPC3 (clone 2B10); CHO-human GPC3
Description: HepG2 cells in the logarithmic growth phase were taken, added with 200 μg/mL of murine IgG (Jackson ImmunoResearch, 115-005-03), and blocked on an ice bath for 30 min. The cells were adjusted to 5×10⁵ cells/mL with 4% calf serum and added to a 96-well U-shaped plate at 100 μl/well. The centrifugation was performed at 300 g for 5 min. The supernatant was discarded. 100 μL of gradient diluted antibody (initial concentration: 1800 nM, 3-fold dilution, 10 gradients) was added to each well, and incubated at 4° C. for 60 min. The primary antibody was washed, added with Alexa Fluro647 labeled goat anti-human IgG Fc (1:300 dilution) 50 μL/well, and incubated on ice for 20 min. After washing once, PI solution was added at 50 μL/well. Incubation was performed for 5 min before detection by flow cytometry. The GPC3×CD3κλ bispecific antibody can bind to GPC3+ tumor cell HepG2 with high affinity.

[1] = target: T4, cynomolgus monkey GPC3 on CHO cells (cynomolgus monkey, UniProt A0A2K5VK50 24-579); experiment: flow cytometry, CHO-cynomolgus monkey GPC3 cells
T4 construct: whole, on cells; also called CHO-cynoGPC3 (clone 4D6); CHO-cynomolgus monkey GPC3
Description: CHO-human GPC3 and CHO-cynomolgus monkey GPC3 stably-transfected cells in the logarithmic growth phase were taken, adjusted to 5×10⁵ cells/ml using 4% calf serum (Hyclone, SH30626.06), and added to a 96-well U-shaped plate at 100 μl/well cell suspension. The centrifugation was performed at 300 g for 5 min. The supernatant was discarded. 100 μL of gradient diluted antibody (initial concentration: 1800 nM, 3-fold dilution, 10 gradients) was added to each well, and incubated at 4° C. for 60 min. The secondary antibody Alexa Fluro647 labeled goat anti-human IgG Fc (1:300 dilution) was added at 50 μL/well and incubated on ice for 20 min. After washing once, propidium iodide solution (1:300) was added at 50 μL/well. Incubation was performed for 5 min before detection by flow cytometry.

[2] = target: T1, human CD3εγ-Fc heterodimer; experiment: SPR (Biacore T200), CD3εγ amine-coupled to the chip, antibody as analyte
Description: (§1) Human or monkey CD3 εγ recombinant antigen at 10 μg/mL was bound to a CMS chip (GE healthcare) by amino coupling, and the antigen binding capacity was controlled to approximately 200 RU. After the baseline was stable, gradient diluted antibodies (initially with 10 μg/mL, 2-fold dilution, 7 gradients) were flowed through the chip at a flow rate of 30 μL/min, with an association time of 350 seconds and a dissociation time of 600 seconds. The kinetic constants were obtained by fitting with 1:1 binding model using Biacore T200 evaluation software.

[3] = target: T2, cynomolgus monkey CD3εγ-Fc heterodimer; experiment: as above
Description: as §1

Row | Binder | EC50 (human GPC3 on cells) | EC50 [1] | Kd [2] | Kd [3]
1 | GPC3×CD3 κλ002 (bispecific antibody, human IgG4 S228P, kappa, lambda, also called GPC3 x CD3 κλ002; GPC3×CD3κλ bispecific antibody) light 1: DVVMTQSPLSLPVTPGEPASISCRSSQSIVHSNGNTYLEWYLKKPGQSPQLLIYKVSNRFSGVPDRFSGSGSGTDFTLKISRVEAEDVGVYFCLQVTHVPLTFGQGTKLEIKRTVAAPSVFIFPPSDEQLKSGTASVVCLLNNFYPREAKVQWKVDNALQSGNSQESVTEQDSKDSTYSLSSTLTLSKADYEKHKVYACEVTHQGLSSPVTKSFNRGEC heavy 1: QVQLVQSGAEVKKPGSSVKVSCKASGYTFADYEIHWVREAPGQGLEWMGAIHPGSGGTAYAQKFQGRVTLTADESSTTAYMELSSLRSEDTAVYYCTRYYSFAYWGQGTLVTVSSASTKGPSVFPLAPCSRSTSESTAALGCLVKDYFPEPVTVSWNSGALTSGVHTFPAVLQSSGLYSLSSVVTVPSSSLGTKTYTCNVDHKPSNTKVDKRVESKYGPPCPPCPAPEFEGGPSVFLFPPKPKDTLMISRTPEVTCVVVDVSQEDPEVQFNWYVDGVEVHNAKTKPREEQFNSTYRVVSVLTVLHQDWLNGKEYKCKVSNKGLASSIEKTISKAKGQPREPQVCTLPPSQEEMTKNQVSLSCAVKGFYPSDIAVEWESNGQPENNYKTTPPVLDSDGSFFLVSKLTVDKSRWQEGNVFSCSVMHEALHNHYTQKSLSLSLGK light 2: QAVVTQEPSLTVSPGGTVTLTCRSSTGAVTTSNYANWVQEKPGQAPRGLIGGTNKRAPWTPARFSGSLLGGKAALTITGAQAEDEAEYYCVLWYSNLWVFGGGTKLTVLGQPKAAPSVTLFPPSSEELQANKATLVCLISDFYPGAVTVAWKADSSPVKAGVETTTPSKQSNNKYAASSYLSLTPEQWKSHRSYSCQVTHEGSTVEKTVAPTECS heavy 2: EVQLVESGGGLVQPGGSLRLSCAASGFTFNTYAMNWVRKAPGKGLEWVGRIRSKYNNYATYYADSVKDRFTISRDDSKNSLYLQMNSLKTEDTAVYYCVRHGNFGNSYVSWFAYWGQGTLVTVSSASTKGPSVFPLAPCSRSTSESTAALGCLVKDYFPEPVTVSWNSGALTSGVHTFPAVLQSSGLYSLSSVVTVPSSSLGTKTYTCNVDHKPSNTKVDKRVESKYGPPCPPCPAPEFEGGPSVFLFPPKPKDTLMISRTPEVTCVVVDVSQEDPEVQFNWYVDGVEVHNAKTKPREEQFNSTYRVVSVLTVLHQDWLNGKEYKCKVSNKGLASSIEKTISKAKGQPREPQVYTLPPCQEEMTKNQVSLWCLVKGFYPSDIAVEWESNGQPENNYKTTPPVLDSDGSFFLYSKLTVDKSRWQEGNVFSCSVMHEALHNHYTQKSLSLSLGK | 2.1 nM | 3 nM | 15.9 nM | 23.9 nM
2 | GPC3×CD3 κλ003 (bispecific antibody, human IgG4 S228P, kappa, lambda, also called GPC3 x CD3 κλ003; GPC3×CD3κλ bispecific antibody) light 1: DVVMTQSPLSLPVTPGEPASISCRSSQSIVHSNGNTYLEWYLKKPGQSPQLLIYKVSNRFSGVPDRFSGSGSGTDFTLKISRVEAEDVGVYFCLQVTHVPLTFGQGTKLEIKRTVAAPSVFIFPPSDKKLKSGTASVVCLLNNFYPREAKVQWKVDNALQSGNSQESVTEQDSKDSTYSLSSTLTLSKADYEKHKVYACEVTHQGLSSPVTKSFNRGEC heavy 1: QVQLVQSGAEVKKPGSSVKVSCKASGYTFADYEIHWVREAPGQGLEWMGAIHPGSGGTAYAQKFQGRVTLTADESSTTAYMELSSLRSEDTAVYYCTRYYSFAYWGQGTLVTVSSASTKGPSVFPLAPCSRSTSESTAALGCLVEDYFPEPVTVSWNSGALTSGVHTFPAVLQSSGLYSLSSVVTVPSSSLGTKTYTCNVDHKPSNTKVDERVESKYGPPCPPCPAPEFEGGPSVFLFPPKPKDTLMISRTPEVTCVVVDVSQEDPEVQFNWYVDGVEVHNAKTKPREEQFNSTYRVVSVLTVLHQDWLNGKEYKCKVSNKGLASSIEKTISKAKGQPREPQVCTLPPSQEEMTKNQVSLSCAVKGFYPSDIAVEWESNGQPENNYKTTPPVLDSDGSFFLVSKLTVDKSRWQEGNVFSCSVMHEALHNHYTQKSLSLSLGK light 2: QAVVTQEPSLTVSPGGTVTLTCRSSTGAVTTSNYANWVQEKPGQAPRGLIGGTNKRAPWTPARFSGSLLGGKAALTITGAQAEDEAEYYCVLWYSNLWVFGGGTKLTVLGQPKAAPSVTLFPPSSEELQANKATLVCLISDFYPGAVTVAWKADSSPVKAGVETTTPSKQSNNKYAASSYLSLTPEQWKSHRSYSCQVTHEGSTVEKTVAPTECS heavy 2: EVQLVESGGGLVQPGGSLRLSCAASGFTFNTYAMNWVRKAPGKGLEWVGRIRSKYNNYATYYADSVKDRFTISRDDSKNSLYLQMNSLKTEDTAVYYCVRHGNFGNSYVSWFAYWGQGTLVTVSSASTKGPSVFPLAPCSRSTSESTAALGCLVKDYFPEPVTVSWNSGALTSGVHTFPAVLQSSGLYSLSSVVTVPSSSLGTKTYTCNVDHKPSNTKVDKRVESKYGPPCPPCPAPEFEGGPSVFLFPPKPKDTLMISRTPEVTCVVVDVSQEDPEVQFNWYVDGVEVHNAKTKPREEQFNSTYRVVSVLTVLHQDWLNGKEYKCKVSNKGLASSIEKTISKAKGQPREPQVYTLPPCQEEMTKNQVSLWCLVKGFYPSDIAVEWESNGQPENNYKTTPPVLDSDGSFFLYSKLTVDKSRWQEGNVFSCSVMHEALHNHYTQKSLSLSLGK | 2.5 nM | 3 nM | 12.1 nM | 17.8 nM
